Assay results taken from the supplement of paper PMC9233669.
Fewer inactive variants are shown than the library holds.

Experiments:
biotinyl-Leu-oxazolone = experiment: self-aminoacylation, catalytic enhancement (BLO) (fold over background); higher = more active; k-Seq, kA / k0A0; sequences stand for … in GGGAAUGGAUCCACAUCUACGAAUUC…UUCACUGCAGACUUGACGAAGCUG
How it was run: (§1)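 The uncatalyzed rate is the low-activity peak of a bimodal Gaussian fit, and catalytic enhancement is median kA divided by it. The kA values came from pseudo-first-order fits, with 1000 bootstraps, of per-sequence fraction reacted measured by streptavidin capture, triplicate qPCR and Illumina sequencing. Mutagenized RNA pools with a 21-nt variable region (0.43 μM) were reacted with each biotinyl-aminoacyl-oxazolone at 2–1250 μM in 50 μL HEPES/NaCl/KCl/MgCl2/CaCl2 buffer with 5% acetonitrile, pH 6.9–7.0, for 90 minutes at room temperature.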

biotinyl-Met-oxazolone = experiment: self-aminoacylation, catalytic enhancement (BMO) (fold over background); higher = more active; k-Seq, kA / k0A0; sequences stand for … in GGGAAUGGAUCCACAUCUACGAAUUC…UUCACUGCAGACUUGACGAAGCUG
How it was run: as §1

biotinyl-Trp-oxazolone = experiment: self-aminoacylation, catalytic enhancement (BWO) (fold over background); higher = more active; k-Seq, kA / k0A0; sequences stand for … in GGGAAUGGAUCCACAUCUACGAAUUC…UUCACUGCAGACUUGACGAAGCUG
How it was run: as §1

biotinyl-Phe-oxazolone = experiment: self-aminoacylation, catalytic enhancement (BFO) (fold over background); higher = more active; k-Seq, kA / k0A0; sequences stand for … in GGGAAUGGAUCCACAUCUACGAAUUC…UUCACUGCAGACUUGACGAAGCUG
How it was run: as §1

biotinyl-Ile-oxazolone = experiment: self-aminoacylation, catalytic enhancement (BIO) (fold over background); higher = more active; k-Seq, kA / k0A0; sequences stand for … in GGGAAUGGAUCCACAUCUACGAAUUC…UUCACUGCAGACUUGACGAAGCUG
How it was run: as §1

biotinyl-Val-oxazolone = experiment: self-aminoacylation, catalytic enhancement (BVO) (fold over background); higher = more active; k-Seq, kA / k0A0; sequences stand for … in GGGAAUGGAUCCACAUCUACGAAUUC…UUCACUGCAGACUUGACGAAGCUG
How it was run: as §1

## AAUUUUGCUAAUAGGCGCAAG [Fam3.1 aminoacylation ribozyme variant]
biotinyl-Leu-oxazolone
  self-aminoacylation: 1.12
biotinyl-Met-oxazolone
  self-aminoacylation: 1.43
biotinyl-Trp-oxazolone
  self-aminoacylation: 1.71
biotinyl-Phe-oxazolone
  self-aminoacylation: 1.5
biotinyl-Ile-oxazolone
  self-aminoacylation: 1.57
biotinyl-Val-oxazolone
  self-aminoacylation: 1.28

## CCACACUUCAAGUAAUCGGUG [Fam1B.1 aminoacylation ribozyme variant]
biotinyl-Leu-oxazolone
  self-aminoacylation: 6.33
biotinyl-Met-oxazolone
  self-aminoacylation: 4.68
biotinyl-Trp-oxazolone
  self-aminoacylation: 4.68
biotinyl-Phe-oxazolone
  self-aminoacylation: 33.4
biotinyl-Ile-oxazolone
  self-aminoacylation: 3.28
biotinyl-Val-oxazolone
  self-aminoacylation: 2.98

## AUUACCCUGGUCAUCGGUUGA [Fam2.1 aminoacylation ribozyme variant]
biotinyl-Leu-oxazolone
  self-aminoacylation: 1.94
biotinyl-Met-oxazolone
  self-aminoacylation: 2
biotinyl-Trp-oxazolone
  self-aminoacylation: 3.08
biotinyl-Phe-oxazolone
  self-aminoacylation: 6.78
biotinyl-Ile-oxazolone
  self-aminoacylation: 1.62
biotinyl-Val-oxazolone
  self-aminoacylation: 1.34

## AUCAUCCUGGUCAUCGAGUGA [Fam2.1 aminoacylation ribozyme variant]
biotinyl-Leu-oxazolone
  self-aminoacylation: 10.1
biotinyl-Met-oxazolone
  self-aminoacylation: 9.33
biotinyl-Trp-oxazolone
  self-aminoacylation: 10.5
biotinyl-Phe-oxazolone
  self-aminoacylation: 36.4
biotinyl-Ile-oxazolone
  self-aminoacylation: 4.91
biotinyl-Val-oxazolone
  self-aminoacylation: 4.82

## AUUACCCUCGUCAUCGUGUGA [Fam2.1 aminoacylation ribozyme variant]
biotinyl-Leu-oxazolone
  self-aminoacylation: 1.47
biotinyl-Met-oxazolone
  self-aminoacylation: 1.47
biotinyl-Trp-oxazolone
  self-aminoacylation: 1.65
biotinyl-Phe-oxazolone
  self-aminoacylation: 1.22
biotinyl-Ile-oxazolone
  self-aminoacylation: 1.15
biotinyl-Val-oxazolone
  self-aminoacylation: 1.22

## AUUACCAUGGUCAUCUAGUGA [Fam2.1 aminoacylation ribozyme variant]
biotinyl-Leu-oxazolone
  self-aminoacylation: 11.1
biotinyl-Met-oxazolone
  self-aminoacylation: 11.1
biotinyl-Trp-oxazolone
  self-aminoacylation: 15.6
biotinyl-Phe-oxazolone
  self-aminoacylation: 59.9
biotinyl-Ile-oxazolone
  self-aminoacylation: 5.41
biotinyl-Val-oxazolone
  self-aminoacylation: 5.38

## CUACUUCACAGAAUCGGUCUG [Fam1A.1 aminoacylation ribozyme variant]
biotinyl-Leu-oxazolone
  self-aminoacylation: 1.1
biotinyl-Met-oxazolone
  self-aminoacylation: 1.05
biotinyl-Trp-oxazolone
  self-aminoacylation: 0.917
biotinyl-Phe-oxazolone
  self-aminoacylation: 1.11
biotinyl-Ile-oxazolone
  self-aminoacylation: 1.03
biotinyl-Val-oxazolone
  self-aminoacylation: 1.02

## GUUCACCUAGUUCAUCGGGUG [Fam2.2 aminoacylation ribozyme variant]
biotinyl-Leu-oxazolone
  self-aminoacylation: 2.37
biotinyl-Met-oxazolone
  self-aminoacylation: 2.66
biotinyl-Trp-oxazolone
  self-aminoacylation: 4.15
biotinyl-Phe-oxazolone
  self-aminoacylation: 15.4
biotinyl-Ile-oxazolone
  self-aminoacylation: 2.79
biotinyl-Val-oxazolone
  self-aminoacylation: 2.9

## CCACAGUUCAAGCAAUGGGUC [Fam1B.1 aminoacylation ribozyme variant]
biotinyl-Leu-oxazolone
  self-aminoacylation: 0.763
biotinyl-Met-oxazolone
  self-aminoacylation: 1.03
biotinyl-Trp-oxazolone
  self-aminoacylation: 0.726
biotinyl-Phe-oxazolone
  self-aminoacylation: 0.542
biotinyl-Ile-oxazolone
  self-aminoacylation: 1.04
biotinyl-Val-oxazolone
  self-aminoacylation: 1.05

## AAGUUUGCUACUAGUCUCAAG [Fam3.1 aminoacylation ribozyme variant]
biotinyl-Leu-oxazolone
  self-aminoacylation: 0.77
biotinyl-Met-oxazolone
  self-aminoacylation: 0.914
biotinyl-Trp-oxazolone
  self-aminoacylation: 0.988
biotinyl-Phe-oxazolone
  self-aminoacylation: 1.11
biotinyl-Ile-oxazolone
  self-aminoacylation: 0.827
biotinyl-Val-oxazolone
  self-aminoacylation: 0.818

## CCACGCUUCAAGCAAUAGGUC [Fam1B.1 aminoacylation ribozyme variant]
biotinyl-Leu-oxazolone
  self-aminoacylation: 0.475
biotinyl-Met-oxazolone
  self-aminoacylation: 0.597
biotinyl-Trp-oxazolone
  self-aminoacylation: 0.367
biotinyl-Phe-oxazolone
  self-aminoacylation: 0.752
biotinyl-Ile-oxazolone
  self-aminoacylation: 0.51
biotinyl-Val-oxazolone
  self-aminoacylation: 0.577

## UUACUUCAAACAAUCGGUCUC [Fam1A.1 aminoacylation ribozyme variant]
biotinyl-Leu-oxazolone
  self-aminoacylation: 1.4
biotinyl-Met-oxazolone
  self-aminoacylation: 1.17
biotinyl-Trp-oxazolone
  self-aminoacylation: 17.2
biotinyl-Phe-oxazolone
  self-aminoacylation: 31.6
biotinyl-Ile-oxazolone
  self-aminoacylation: 1.2
biotinyl-Val-oxazolone
  self-aminoacylation: 1.04

## AAGUGUGCGAAUAGUCGCAAG [Fam3.1 aminoacylation ribozyme variant]
biotinyl-Leu-oxazolone
  self-aminoacylation: 1.76
biotinyl-Met-oxazolone
  self-aminoacylation: 1.79
biotinyl-Trp-oxazolone
  self-aminoacylation: 1.38
biotinyl-Phe-oxazolone
  self-aminoacylation: 2.28
biotinyl-Ile-oxazolone
  self-aminoacylation: 1.72
biotinyl-Val-oxazolone
  self-aminoacylation: 1.82

## AAGUUUUCUAAUAGUCCCAAG [Fam3.1 aminoacylation ribozyme variant]
biotinyl-Leu-oxazolone
  self-aminoacylation: 0.929
biotinyl-Met-oxazolone
  self-aminoacylation: 0.891
biotinyl-Trp-oxazolone
  self-aminoacylation: 1.45
biotinyl-Phe-oxazolone
  self-aminoacylation: 2.7
biotinyl-Ile-oxazolone
  self-aminoacylation: 1.02
biotinyl-Val-oxazolone
  self-aminoacylation: 1.08

## UUUACCCUGGUCAUCGUGUGA [Fam2.1 aminoacylation ribozyme variant]
biotinyl-Leu-oxazolone
  self-aminoacylation: 3.11
biotinyl-Met-oxazolone
  self-aminoacylation: 2.98
biotinyl-Trp-oxazolone
  self-aminoacylation: 3.71
biotinyl-Phe-oxazolone
  self-aminoacylation: 15.3
biotinyl-Ile-oxazolone
  self-aminoacylation: 1.66
biotinyl-Val-oxazolone
  self-aminoacylation: 2.06

## CUACUUCAAACAAGCCGUCUG [Fam1A.1 aminoacylation ribozyme variant]
biotinyl-Leu-oxazolone
  self-aminoacylation: 0.872
biotinyl-Met-oxazolone
  self-aminoacylation: 0.925
biotinyl-Trp-oxazolone
  self-aminoacylation: 0.926
biotinyl-Phe-oxazolone
  self-aminoacylation: 0.59
biotinyl-Ile-oxazolone
  self-aminoacylation: 0.78
biotinyl-Val-oxazolone
  self-aminoacylation: 0.746

## UUACUUCACACAAUCGGUCUG [Fam1A.1 aminoacylation ribozyme variant]
biotinyl-Leu-oxazolone
  self-aminoacylation: 1.17
biotinyl-Met-oxazolone
  self-aminoacylation: 1.06
biotinyl-Trp-oxazolone
  self-aminoacylation: 1.03
biotinyl-Phe-oxazolone
  self-aminoacylation: 1.66
biotinyl-Ile-oxazolone
  self-aminoacylation: 1.27
biotinyl-Val-oxazolone
  self-aminoacylation: 1.28

## CCACACUUCAAGAAAUCGGGC [Fam1B.1 aminoacylation ribozyme variant]
biotinyl-Leu-oxazolone
  self-aminoacylation: 1.64
biotinyl-Met-oxazolone
  self-aminoacylation: 1.82
biotinyl-Trp-oxazolone
  self-aminoacylation: 2.16
biotinyl-Phe-oxazolone
  self-aminoacylation: 1.14
biotinyl-Ile-oxazolone
  self-aminoacylation: 2.14
biotinyl-Val-oxazolone
  self-aminoacylation: 1.69

## UUUCACCUAGGUCAUCGAGUG [Fam2.2 aminoacylation ribozyme variant]
biotinyl-Leu-oxazolone
  self-aminoacylation: 9.37
biotinyl-Met-oxazolone
  self-aminoacylation: 7.16
biotinyl-Trp-oxazolone
  self-aminoacylation: 4.82
biotinyl-Phe-oxazolone
  self-aminoacylation: 16.4
biotinyl-Ile-oxazolone
  self-aminoacylation: 5.72
biotinyl-Val-oxazolone
  self-aminoacylation: 4.45

## AUUUCCCUGGUCAUCGAUUGA [Fam2.1 aminoacylation ribozyme variant]
biotinyl-Leu-oxazolone
  self-aminoacylation: 1.06
biotinyl-Met-oxazolone
  self-aminoacylation: 0.986
biotinyl-Trp-oxazolone
  self-aminoacylation: 0.985
biotinyl-Phe-oxazolone
  self-aminoacylation: 0.598
biotinyl-Ile-oxazolone
  self-aminoacylation: 1.07
biotinyl-Val-oxazolone
  self-aminoacylation: 1

## AAGUUUGCUAGGAGUCGCAAG [Fam3.1 aminoacylation ribozyme variant]
biotinyl-Leu-oxazolone
  self-aminoacylation: 0.459
biotinyl-Met-oxazolone
  self-aminoacylation: 0.673
biotinyl-Trp-oxazolone
  self-aminoacylation: 1.02
biotinyl-Phe-oxazolone
  self-aminoacylation: 0.649
biotinyl-Ile-oxazolone
  self-aminoacylation: 0.788
biotinyl-Val-oxazolone
  self-aminoacylation: 0.745

## AUUCACGUAGGUCAUCCGGUG [Fam2.2 aminoacylation ribozyme variant]
biotinyl-Leu-oxazolone
  self-aminoacylation: 17
biotinyl-Met-oxazolone
  self-aminoacylation: 13.2
biotinyl-Trp-oxazolone
  self-aminoacylation: 12.1
biotinyl-Phe-oxazolone
  self-aminoacylation: 120
biotinyl-Ile-oxazolone
  self-aminoacylation: 7.72
biotinyl-Val-oxazolone
  self-aminoacylation: 8.57

## CGACACUUCAAGCAAUCGUUC [Fam1B.1 aminoacylation ribozyme variant]
biotinyl-Leu-oxazolone
  self-aminoacylation: 0.669
biotinyl-Met-oxazolone
  self-aminoacylation: 0.629
biotinyl-Trp-oxazolone
  self-aminoacylation: 0.465
biotinyl-Phe-oxazolone
  self-aminoacylation: 1
biotinyl-Ile-oxazolone
  self-aminoacylation: 0.778
biotinyl-Val-oxazolone
  self-aminoacylation: 0.946

## CUACUUCAAGCAAUCGGUCUU [Fam1A.1 aminoacylation ribozyme variant]
biotinyl-Leu-oxazolone
  self-aminoacylation: 0.97
biotinyl-Met-oxazolone
  self-aminoacylation: 0.87
biotinyl-Trp-oxazolone
  self-aminoacylation: 4.63
biotinyl-Phe-oxazolone
  self-aminoacylation: 6.92
biotinyl-Ile-oxazolone
  self-aminoacylation: 1.07
biotinyl-Val-oxazolone
  self-aminoacylation: 1.06

## AUUCGCCUAGGUCAUCGUGUG [Fam2.2 aminoacylation ribozyme variant]
biotinyl-Leu-oxazolone
  self-aminoacylation: 1.35
biotinyl-Met-oxazolone
  self-aminoacylation: 1.45
biotinyl-Trp-oxazolone
  self-aminoacylation: 0.823
biotinyl-Phe-oxazolone
  self-aminoacylation: 3.31
biotinyl-Ile-oxazolone
  self-aminoacylation: 1.04
biotinyl-Val-oxazolone
  self-aminoacylation: 1.05
